Measured values taken from patent US20180142030A1 (Bristol-Myers Squibb, published 2018).
Residue numbers refer to the chain shown, from its start. In names and notes the source's numbering stands.

B1: 12D6-24 V9 (antibody, human IgG1, kappa)
heavy: QVQLVQSGAEVKKPGASVKVSCKASGYTFTGYNMNWVRQAPGQGLEWMGNIDPYYGNTNYNQKFKGRVTMTTDTSTSTAYMELRSLRSDDTAVYYCARLGLQLYALDYWGQGTTVTVSSASTKGPSVFPLAPSSKSTSGGTAALGCLVKDYFPEPVTVSWNSGALTSGVHTFPAVLQSSGLYSLSSVVTVPSSSLGTQTYICNVNHKPSNTKVDKRVEPKSCDKTHTCPPCPAPELLGDDSVFLFPPKPKDTLMISRTPEVTCVVVDVSHEDGEVKFNWYVDGVEVHNAKTKPREEQYNSTYRVVSVLTVLHQDWLNGKEYKCKVSNKALPRPIEKTISKAKGQPREPQVYTLPPSREEMTKNQVSLTCLVKGFYPSDIAVEWESNGQPENNYKTTPPVLDSDGSFFLYSKLTVDKSRWQQGNVFSCSVMHEALHNHYTQKSLSLSPG
light: DIVMTQTPLSLPVTPGEPASISCRSSQSLVHSNANTYLHWYLQKPGQSPQLLIYKLTNRFFGVPDRFSGSGSGTDFTLKISRVEAEDVGVYYCSQSIHVPWTFGGGTKVEIKRTVAAPSVFIFPPSDEQLKSGTASVVCLLNNFYPREAKVQWKVDNALQSGNSQESVTEQDSKDSTYSLSSTLTLSKADYEKHKVYACEVTHQGLSSPVTKSFNRGEC
B2: 12D6-24 V4 D270E (antibody, human IgG1, kappa)
heavy: B1 heavy with D239G, D272E, R332A
light: B1 light
B3: 12D6-24 V9 D270E (antibody, human IgG1, kappa)
heavy: B1 heavy with D272E
light: B1 light
B4: 12D6-24-V9-DA-sup (antibody)
heavy: B1 heavy with D272A
light: B1 light
notes: Tested as supernatant of antibody-producing cells; also called 12D6-24 V9 D270A; copies: 2 + 2
B5: 12D6-24-V9-DQ-sup (antibody)
heavy: B1 heavy with D272Q
light: B1 light
notes: Tested as supernatant of antibody-producing cells; also called 12D6-24 V9 D270Q; copies: 2 + 2
B6: 12D6-24-V9-DS-sup (antibody)
heavy: B1 heavy with D272S
light: B1 light
notes: Tested as supernatant of antibody-producing cells; also called 12D6-24 V9 D270S; copies: 2 + 2
B7: 12D6-24-V9-DT-sup (antibody)
heavy: B1 heavy with D272T
light: B1 light
notes: Tested as supernatant of antibody-producing cells; also called 12D6-24 V9 D270T; copies: 2 + 2
B8: 5F11-45 V9 (antibody, human IgG1, kappa)
heavy: QVQLVQSGAEVKKPGSSVKVSCKASGYTFTDLSMHWVRQAPGQGLEWMGYITPSSGYTAYNQKFKGKTTLTADKSTSTAYMELSSLRSEDTAVYYCARLILQRGAYWGQGTLVTVSSASTKGPSVFPLAPSSKSTSGGTAALGCLVKDYFPEPVTVSWNSGALTSGVHTFPAVLQSSGLYSLSSVVTVPSSSLGTQTYICNVNHKPSNTKVDKRVEPKSCDKTHTCPPCPAPELLGDDSVFLFPPKPKDTLMISRTPEVTCVVVDVSHEDGEVKFNWYVDGVEVHNAKTKPREEQYNSTYRVVSVLTVLHQDWLNGKEYKCKVSNKALPRPIEKTISKAKGQPREPQVYTLPPSREEMTKNQVSLTCLVKGFYPSDIAVEWESNGQPENNYKTTPPVLDSDGSFFLYSKLTVDKSRWQQGNVFSCSVMHEALHNHYTQKSLSLSPG
light: DIVLTQSPDSLAVSLGERATINCRASKNVDSYGNSFMHWYQQKPGQPPKLLIYRASNLESGVPDRFSGSGSGTDFTLTISSLQAEDVAVYYCQQSNEDPLTFGQGTKLEIKRTVAAPSVFIFPPSDEQLKSGTASVVCLLNNFYPREAKVQWKVDNALQSGNSQESVTEQDSKDSTYSLSSTLTLSKADYEKHKVYACEVTHQGLSSPVTKSFNRGEC
B9: 5F11-45 V4 (antibody, human IgG1, kappa)
heavy: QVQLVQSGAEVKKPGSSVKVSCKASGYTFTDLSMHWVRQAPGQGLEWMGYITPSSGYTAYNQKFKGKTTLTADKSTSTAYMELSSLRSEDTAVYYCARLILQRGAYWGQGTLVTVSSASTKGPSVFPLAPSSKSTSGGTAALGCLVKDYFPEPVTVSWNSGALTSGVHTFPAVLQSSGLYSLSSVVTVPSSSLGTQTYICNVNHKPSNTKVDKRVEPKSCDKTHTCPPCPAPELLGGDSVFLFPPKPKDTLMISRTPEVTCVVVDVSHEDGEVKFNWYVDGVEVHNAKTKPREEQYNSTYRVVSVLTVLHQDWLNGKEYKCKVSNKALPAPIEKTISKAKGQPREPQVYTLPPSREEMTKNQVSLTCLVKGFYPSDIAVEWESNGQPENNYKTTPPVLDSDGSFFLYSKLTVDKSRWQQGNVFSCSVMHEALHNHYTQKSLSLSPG
light: B8 light
B10: 5F11-45 V4 D270E (antibody, human IgG1, kappa)
heavy: B8 heavy with D237G, D270E, R330A
light: B8 light
notes: also called 5F11-45 D270E V4
B11: 5F11-45-V9-DT-sup (antibody, human IgG1, kappa)
heavy chain: B8 heavy with D270T
light chain: B8 light
notes: Tested as supernatant of antibody-producing cells; also called 5F11-45 V9 D270T
B12: 8E8-67 (antibody, human IgG1, kappa, V domains shown)
VH: QVQFVQSGAEVKKPGSSVKVSCKASGYTFTSYWMQWVRQAPGQGLEWMGTIYPGDGDSRYNQKFKGKALLTADKSTSTAYMELSSLRSEDTAVYYCARFSLYEGYPYYFDYWGQGTTVTVSS
VL: DIVMTQSPLSLPVTPGEPASISCRSSQSLVHRNANTYLHWYLQKPGQSPQLLIYRVSNRFSGVPDRFSGSGSGTDFTLKISRVEAEDVGVYYCSQSTHFPYTFGGGTKVEIKR
notes: Humanized; IgG1f
B13: 8E8-70 (antibody, human IgG1, kappa, V domains shown)
VH: B12 VH with G56S
VL: B12 VL with A34G
notes: Humanized; IgG1f
B14: 8E8-71 (antibody, human IgG1, kappa, V domains shown)
VH: B12 VH with G56S
VL: B12 VL
notes: Humanized; IgG1f

Legend:
FcγRIIa-H131 = target: T1, FcγRIIa-H131 (human, UniProt P12318 34-218, limits assumed); assay: BLI (ForteBio Octet), %Rmax at 10 µM hCD32a/FcγRIIa-H131
T1 construct: Construct not described; also called hCD32a/FcγRIIa-H131
T1 sequence (looked up): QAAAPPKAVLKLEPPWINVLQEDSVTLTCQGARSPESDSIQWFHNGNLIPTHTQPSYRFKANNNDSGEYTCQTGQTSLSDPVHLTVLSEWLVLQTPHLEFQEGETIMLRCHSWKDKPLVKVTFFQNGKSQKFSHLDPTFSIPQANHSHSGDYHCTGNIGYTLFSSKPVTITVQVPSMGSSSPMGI
Protocol: (§1) See Example 8. Antibody names including “-sup” represent supernatants from antibody producing cells, whereas others are purified antibodies. Data are presented as percentages of a maximum receptor binding value for each combination of antibody and receptor, as measured in a ForteBio Octet system. See, e.g., Example 3. Each cluster of three bars represents, from left to right, binding to hCD32a/FcγRIIa-H131 (10 μM) (hatched bars), […] (10 μM) (black bars), and hCD32b/FcγRIIb (1 μM) (white bars).
(§2) Supernatants were obtained from cells expressing these antibodies and assayed for binding to hCD32/FcγRII. Selected purified antibodies without mutations at position 270 were used as controls.

FcγRIIb = target: T2, FcγRIIb (human, UniProt P31994 43-217, limits assumed); assay: BLI (ForteBio Octet), %Rmax at 1 µM hCD32b/FcγRIIb
T2 construct: Construct not described; also called hCD32b/FcγRIIb
T2 sequence (looked up): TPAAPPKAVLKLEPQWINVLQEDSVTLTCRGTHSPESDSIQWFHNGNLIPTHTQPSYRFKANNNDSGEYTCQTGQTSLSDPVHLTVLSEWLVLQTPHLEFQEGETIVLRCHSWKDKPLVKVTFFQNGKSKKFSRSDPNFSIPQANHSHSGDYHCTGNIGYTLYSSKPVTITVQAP
Protocol: as §1, §2

FcγRIIa-R131 = target: T3, FcγRIIa-R131 (human, UniProt P12318 34-218, limits assumed); assay: BLI (ForteBio Octet), %Rmax at 10 µM FcγRIIa-R131 (CD32a-R131 on the sheet)
T3 construct: Construct not described
T3 sequence (looked up): T1 sequence (looked up) with H134R
Protocol: as §1, §2

[1] = target: T4, recombinant human CD40 monomer (human, UniProt P25942 21-193); assay: BLI (Octet RED); antibody supernatant captured on protein A sensors, huCD40-monomer in solution
T4 construct: also called huCD40-monomer; soluble human CD40
Excerpt: The closest matching human germline region sequence was selected for each mouse variable domain, and these human framework regions were used to replace murine frameworks in the “CDR graft” versions of the antibodies. Additional amino acid substitutions, such as framework back-mutations, were then made as necessary to restore the binding affinity of the humanized antibody. Further amino acid substitutions were made to eliminate sequence liabilities. The sequence relationships between the various forms of the antibodies of the present invention are provided at Table 6. The binding of various agonistic anti-huCD40 antibodies to soluble human CD40 was determined by Biolayer Interferometry (BLI) analysis using a Fortebio Octet RED (Rapid system—Extended Detection) label-free interaction analysis instrument. All studies were performed in 10 mM NaₓPO₄, 130 mM NaCl, 0.05% Surfactant P20 (pH 7.1) at 25° C. Briefly, anti-huCD40 antibody supernatants (diluted to 10 μg/ml or captured undiluted if supernatant concentration was less than 10 μg/ml) were captured on protein A coated biosensors (Pall Fortebio #18-5010) using a loading time of 90 s and shake speed of 1000 rpm. Supernatants were first screened for binding to 1 μM recombinant human CD40 monomer (huCD40-monomer) using 180 s association and dissociation times, at 1000 rpm, with two 15 s conditioning steps using 10 mM glycine pH 1.5 in between binding cycles.

T4 sequence (P25942 21-193 limits assumed): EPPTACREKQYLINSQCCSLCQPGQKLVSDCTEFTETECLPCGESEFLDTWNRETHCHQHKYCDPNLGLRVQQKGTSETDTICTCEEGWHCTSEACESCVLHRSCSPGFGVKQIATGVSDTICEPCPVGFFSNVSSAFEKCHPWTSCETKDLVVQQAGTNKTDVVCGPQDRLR

Binder | binding result (FcγRIIa-H131) | binding result (FcγRIIb) | binding result (FcγRIIa-R131) | Kd [1] [nM] | binding result [1]
B1 | binds | binds | binds |  | 
B2 |  | binds | binds |  | 
B3 | binds | binds | binds |  | 
B4 | binds | binds | binds |  | 
B5 | binds | binds | binds |  | 
B6 | binds | binds | binds |  | 
B7 |  | binds | binds |  | 
B8 | binds | binds | binds |  | 
B9 | binds | binds | binds |  | 
B10 |  | binds | binds |  | 
B11 |  | binds | binds |  | 
B12 |  |  |  | 28 | 
B13 |  |  |  |  | binds
B14 |  |  |  |  | binds
